Legend:
[1] = target: p97 (melanotransferrin) (UniProt P08582); experiment: p97-coated plate, scFv-BLA culture broth, bound BLA activity (nitrocefin, 490 nm); ratio T1 (1 h dissociation)/T0 of mutant over parent; pH 7.4
[2] = target: p97 (melanotransferrin) (UniProt P08582); experiment: p97-coated plate, scFv-BLA culture broth, bound BLA activity (nitrocefin, 490 nm); ratio T1 (1 h dissociation)/T0 of mutant over parent; pH 6.5

Sequence of UniProt P08582 (P08582 20-709 limits assumed): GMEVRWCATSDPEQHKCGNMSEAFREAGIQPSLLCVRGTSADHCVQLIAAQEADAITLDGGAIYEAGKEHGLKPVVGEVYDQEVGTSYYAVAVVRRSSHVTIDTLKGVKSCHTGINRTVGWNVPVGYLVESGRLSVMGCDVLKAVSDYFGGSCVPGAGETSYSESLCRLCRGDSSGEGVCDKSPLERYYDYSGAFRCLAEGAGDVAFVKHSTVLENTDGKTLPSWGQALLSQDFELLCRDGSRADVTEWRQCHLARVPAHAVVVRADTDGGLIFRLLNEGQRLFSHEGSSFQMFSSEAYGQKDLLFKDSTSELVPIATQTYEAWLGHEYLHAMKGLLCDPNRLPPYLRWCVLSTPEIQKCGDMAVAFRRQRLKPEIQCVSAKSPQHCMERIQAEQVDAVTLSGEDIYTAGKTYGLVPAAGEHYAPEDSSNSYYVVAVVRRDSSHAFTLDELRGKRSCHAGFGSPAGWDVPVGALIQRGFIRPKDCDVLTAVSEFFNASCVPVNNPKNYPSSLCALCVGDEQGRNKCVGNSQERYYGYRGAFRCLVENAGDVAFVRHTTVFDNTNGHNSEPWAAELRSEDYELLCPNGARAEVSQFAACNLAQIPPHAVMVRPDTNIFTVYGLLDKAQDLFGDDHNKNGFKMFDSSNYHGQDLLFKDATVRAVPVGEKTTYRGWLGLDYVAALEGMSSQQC

Row | Substance | Index pH7.4 [1] | Index pH6.5 [2]
1 | ME43 (SGN-17 scFv-BLA, heavy chain K64 to His) | 0.61 | 0.65
2 | ME44 (SGN-17 scFv-BLA, heavy chain R97 to His) | 0.24 | –
3 | ME46 (SGN-17 scFv-BLA, heavy chain T99 to His) | 0.38 | 0.09
4 | ME47 (SGN-17 scFv-BLA, heavy chain L100 to His) | 0.24 | –
5 | ME48 (SGN-17 scFv-BLA, heavy chain A101 to His) | 0.49 | 0.33
6 | ME50 (SGN-17 scFv-BLA, heavy chain Y103 to His) | 0.33 | –
7 | ME51 (SGN-17 scFv-BLA, heavy chain Y104 to His) | 0.26 | –
8 | ME53 (SGN-17 scFv-BLA, heavy chain M106 to His) | 0.97 | 0.8
9 | ME54 (SGN-17 scFv-BLA, heavy chain D107 to His) | 0.41 | 0.7
10 | ME55 (SGN-17 scFv-BLA, heavy chain Y108 to His) | 0.8 | 0.7
11 | ME56 (SGN-17 scFv-BLA, heavy chain W109 to His) | 0.57 | 0.41
12 | ME58 (SGN-17 scFv-BLA, light chain R58 to His) | 0.92 | 0.76
13 | ME59 (SGN-17 scFv-BLA, light chain Q94 to His) | 0.28 | –
14 | ME60 (SGN-17 scFv-BLA, light chain S95 to His) | 1.04 | 1.09
15 | ME61 (SGN-17 scFv-BLA, light chain T96 to His) | 0.82 | 0.81
16 | ME63 (SGN-17 scFv-BLA, light chain V98 to His) | 0.21 | –
17 | ME64 (SGN-17 scFv-BLA, light chain P99 to His) | 0.35 | –
18 | ME66 (SGN-17 scFv-BLA, light chain T101 to His) | 1.36 | 1.73

Reference: EP2107116A2
